Consider 167 variants from the RNAGym collection of RNA variant scans (doi:10.7554/elife.90254).

B1: LINE1-mini (parent)
chain: GGCAGAGCUCAACACAGCGUGGCAAAGUGGCUGUGGCUAGACUGCC

In this data set the parent is B1. Nature of the data set: self-cleavage, relative activity (ratio to wild type); higher = more cleavage; in vitro, sequencing; the parent is a self-cleaving ribozyme.
With G17A A41C, the self-cleavage was determined as 0.04. On to G17A A41U, for which the self-cleavage amounted to 0.12.

G17A A41G: the self-cleavage is 0.07.

Consider C15U G27C, for which the self-cleavage was determined as 0.87. With C15U G27U, the self-cleavage stood at 1.36. Consider A16C G36A, for which the self-cleavage worked out at 0.12. Take A16C G36U: the self-cleavage is 0.07.

Turning to A16C G36C, the self-cleavage amounted to 0.04. The result for A16U U38G reads 0.02; that for A16U U38A, 0.1; that for A16U U38C, 0.04. As to A16C U28C, the self-cleavage stood at 0.03. For the variant A16C U28G, the self-cleavage is 0.07. Regarding A16C U28A, the self-cleavage was found to be 0.18. Turning to C15U G44A, the self-cleavage stood at 0.26.

With C15U G44C, the self-cleavage came to 0.31. As for C15U G44U, the self-cleavage came out at 0.09. As to A16G G36A, the self-cleavage came to 0.53. For the variant A16G G36C, the self-cleavage was found to be 0.05.

Take A16G G36U: the self-cleavage came to 0.04. In the case of A16G G35C, the self-cleavage was 0.04.

In the case of A16G G35A, the self-cleavage was found to be 0.03. Take A16G G35U: the self-cleavage was 0.11. The result for A16U C31U reads 0.03.

As to A16U C31A, the self-cleavage came out at 0.21.

Take A16U C31G: the self-cleavage was determined as 0.04. On to A16C C31U, for which the self-cleavage worked out at 0.03. On to A16C C31G, for which the self-cleavage is 0.03. As for A16C C31A, the self-cleavage turned out to be 0.08.

For the variant A16C G30C, the self-cleavage came to 0.12. Consider A16C G30U, for which the self-cleavage was found to be 0.05. A16C G30A: the self-cleavage amounted to 0.14. Next, A16G U38G: 0.01. Turning to A16G U38A, the self-cleavage amounted to 0.4.

As for A16G U38C, the self-cleavage stood at 0.18. Regarding C15U G33C, the self-cleavage came out at 0.09.

C15U G33U: the self-cleavage is 0.37.

In the case of A16U G17C, the self-cleavage is 0.2. For A16U G17U, the self-cleavage was 0.03. As for A16U G17A, the self-cleavage came out at 0.06. Take A16G G40A: the self-cleavage came out at 0.05. Take A16G G40C: the self-cleavage came out at 0.07. As for A16G G40U, the self-cleavage amounted to 0.05.

As for G17A C18G, the self-cleavage worked out at 0.32. Consider G17A C18A, for which the self-cleavage is 0.09. On to G17A C18U, for which the self-cleavage worked out at 0.14. As to C15U U28A, the self-cleavage was found to be 1.35.

As for C15U U28G, the self-cleavage turned out to be 0.31.

Take C15U U28C: the self-cleavage turned out to be 1.52. Turning to A16U C18G, the self-cleavage came out at 0.05.

Turning to A16U C18U, the self-cleavage turned out to be 0.07.

On to A16U C18A, for which the self-cleavage is 0.05. In the case of C15U G30A, the self-cleavage was 0.35. For C15U G30C, the self-cleavage was determined as 0.09. The result for C15U G30U reads 0.6; that for A16U A25C, 0.03.

Take A16U A25U: the self-cleavage amounted to 0.1. Turning to A16U A25G, the self-cleavage is 0.07. Take G17A A39C: the self-cleavage came to 0.07. On to G17A A39G, for which the self-cleavage came out at 0.06. For G17A A39U, the self-cleavage worked out at 0.06.

As to A16C, the self-cleavage turned out to be 0.11. A16U: the self-cleavage was determined as 0.15. The result for A16G reads 0.61; that for A16C G19U, 0.08; that for A16C G19C, 0.4. A16C G19A: the self-cleavage was 0.18. The result for A16C A25C reads 0.04; that for A16C A25U, 0.08; that for A16C A25G, 0.07. The result for A16G G17A reads 0.15.

For A16G G17C, the self-cleavage was 0.31. As to A16G G17U, the self-cleavage was 0.32. Consider A16C G33C, for which the self-cleavage stood at 0.05. Next, A16C G33A: 0.07; A16C G33U: 0.05. For the variant A16C C23G, the self-cleavage was 0.08. A16C C23U: the self-cleavage came to 0.45. Take A16C C23A: the self-cleavage amounted to 0.12. As for A16U G36U, the self-cleavage was determined as 0.06. In the case of A16U G36C, the self-cleavage is 0.07. The result for A16U G36A reads 0.06. In the case of A16G G44U, the self-cleavage turned out to be 0.05. Turning to A16G G44A, the self-cleavage worked out at 0.25. Next, A16G G44C: 0.19; A16U C23A: 0.19. With A16U C23U, the self-cleavage was found to be 0.23. Regarding A16U C23G, the self-cleavage is 0.1. With A16U A26G, the self-cleavage was 0.06.

With A16U A26C, the self-cleavage came out at 0.06. Turning to A16U A26U, the self-cleavage came out at 0.13.

Regarding A16G C45U, the self-cleavage worked out at 0.45. For the variant A16G C45G, the self-cleavage was found to be 0.11. As to A16G C45A, the self-cleavage was determined as 0.14.

With A16C G17A, the self-cleavage came out at 0.07. Consider A16C G17C, for which the self-cleavage worked out at 0.12.

Take A16C G17U: the self-cleavage amounted to 0.08. In the case of A16G G29U, the self-cleavage was 0.77.

On to A16G G29A, for which the self-cleavage stood at 1.23.

With A16G G29C, the self-cleavage came out at 0.4. Turning to A16G C31U, the self-cleavage amounted to 0.03.

On to A16G C31G, for which the self-cleavage is 0.02. Next, A16G C31A: 0.03. A16G A26G: the self-cleavage was determined as 0.37. On to A16G A26C, for which the self-cleavage is 0.84. As to A16G A26U, the self-cleavage was 0.52. Take G17A C23G: the self-cleavage came out at 0.13.

On to G17A C23A, for which the self-cleavage was found to be 0.29. With G17A C23U, the self-cleavage is 0.22. Take C15U G29U: the self-cleavage came to 1.42.

Turning to C15U G29A, the self-cleavage came to 1.1. Take C15U G29C: the self-cleavage is 1.59. Turning to A16U U28A, the self-cleavage was 0.26. On to A16U U28C, for which the self-cleavage amounted to 0.55. As for A16U U28G, the self-cleavage is 0.22. A16G C42U: the self-cleavage came to 0.09. Turning to A16G C42A, the self-cleavage amounted to 0.07. In the case of A16G C42G, the self-cleavage stood at 0.03.

As for A16G G27A, the self-cleavage amounted to 0.78.

In the case of A16G G27C, the self-cleavage was 0.17. A16G G27U: the self-cleavage amounted to 0.68. In the case of A16G U28C, the self-cleavage amounted to 0.44.

As for A16G U28G, the self-cleavage worked out at 0.36.

Consider A16G U28A, for which the self-cleavage came out at 0.53. The result for A16C U20A reads 0.05. The result for A16C U20G reads 0.08. Next, A16C U20C: 0.19. In the case of A16G C23U, the self-cleavage was determined as 0.82. Consider A16G C23A, for which the self-cleavage was determined as 0.56. Take A16G C23G: the self-cleavage came out at 0.64. As to C15U G35C, the self-cleavage stood at 0.14. In the case of C15U G35U, the self-cleavage is 0.13. For the variant C15U G35A, the self-cleavage amounted to 0.09. In the case of A16C A24G, the self-cleavage was 0.04. Consider A16C A24U, for which the self-cleavage came out at 0.11. Next, A16C A24C: 0.07; C15U U38C: 0.27. For the variant C15U U38A, the self-cleavage turned out to be 0.64. For C15U U38G, the self-cleavage came to 0.04.

With A16C A39G, the self-cleavage is 0.04.

For A16C A39C, the self-cleavage turned out to be 0.02. In the case of A16C A39U, the self-cleavage came out at 0.09.

As to A16G A39G, the self-cleavage stood at 0.07. For A16G A39C, the self-cleavage was found to be 0.12. Take A16G A39U: the self-cleavage came to 0.14. In the case of A16C C42U, the self-cleavage was determined as 0.06. As for A16C C42A, the self-cleavage is 0.05. In the case of A16C C42G, the self-cleavage came out at 0.09.

G17A A25C: the self-cleavage worked out at 0.07.

Take G17A A25U: the self-cleavage was determined as 0.24. Next, G17A A25G: 0.07; A16G U32C: 0.26; A16G U32A: 0.07.

In the case of A16G U32G, the self-cleavage worked out at 0.11. With A16U G44U, the self-cleavage was determined as 0.03. With A16U G44C, the self-cleavage is 0.03.

A16U G44A: the self-cleavage stood at 0.05.

In the case of A16U U43A, the self-cleavage is 0.05. For A16U U43C, the self-cleavage turned out to be 0.04. Turning to A16U U43G, the self-cleavage was found to be 0.02. A16C G21C: the self-cleavage is 0.22. Turning to A16C G21A, the self-cleavage was determined as 0.14.

With A16C G21U, the self-cleavage came out at 0.07. Take A16G G21C: the self-cleavage worked out at 0.34.

On to A16G G21A, for which the self-cleavage was determined as 0.7. Next, A16G G21U: 0.48; A16G G30A: 0.67.
